{
  "source": "patent US10006080B2",
  "about": "“High-selectivity contact activation inhibitor based on infestin-4” (OBSCHESTVO S OGRANICHENNOY OTVETSTVENNOSTYU …, priority 2013, dated 2018)",
  "key": {"fXIIa": {"molecular_target": "T1, fXIIa (Homo sapiens, UniProt P00748)", "T1 construct": "it can be transformed into an active protease, factor XIIa (fXIIa)", "test": "Chromogenic test of protease inhibition in buffer, fXIIa (substrate S-2302)", "format": "biochemical", "settings": "versus fXIa, fXa, aPC; Table 2", "procedure": "(§1) In order to assess selectivity of the fXIIa inhibition by the polypeptide comprising the sequence of the infestin-4 mutant MutB, its inhibitory activity in buffer solution against the purified coagulation factors was determined. The polypeptide's activity was compared with the known fXIIa inhibitors: CTI, infestin-4, infestin-4-based mutant Mut15, LCTI-III. […] The standard deviation amounted to about 50% of the average value; each value was measured by performing 2-3 repeats.\n(§2) To determine the inhibition activity of such proteins as MutB, CTI, Inf4, Mut15, and LCTI-III as related to different coagulation proteases in a buffer, the chromogenic test was used: the mixture of protease and inhibitor was incubated in the wells of the plate for 15 minutes at 37° C., after which the chromogenic substrate solution was added to the mixture, and the protease activity was measured as the rate of chromogenic product formation at 37° C.\n(§3) Chromogenic substrates included a p-nitroanilide group cleaved by the corresponding proteases. After cleavage of the p-nitroanilide group from the substrate molecule, the group absorption spectrum changes, and the change of concentration of such product within time can be detected at the light wavelength of 405 nm using a plate spectrophotometer. […]"}, "fXIa": {"molecular_target": "T2, fXIa (Homo sapiens, UniProt P03951)", "T2 construct": "factor XI into its active form, factor XIa (fXIa)", "test": "Chromogenic test of protease inhibition in buffer, fXIa (substrate S-2366)", "format": "biochemical", "settings": "buffer solution, summary of Table 2", "procedure": "as §1, §2\n(§4) Chromogenic substrates included a p-nitroanilide group cleaved by the corresponding proteases. After cleavage of the p-nitroanilide group from the substrate molecule, the group absorption spectrum changes, and the change of concentration of such product within time can be detected at the light wavelength of 405 nm using a plate spectrophotometer. To build a dependence curve of the protease activity from the inhibitor concentration, different inhibitor concentrations were added into several samples with the same protease concentration. After that, the inhibitor concentration able to decrease the protease activity by 50% (IC50) was determined. The inhibition constant Ki was calculated using the Cheng-Prusoff equation (Ki=IC50/(1+S/KM)), where S is the initial substrate concentration, KM is the Michaelis-Menten constant of the substrate to the protease.\nNative infestin-4 and its mutants MutB and Mut15 used here were fusion proteins with thioredoxin I E. coli containing polyhisticline clusters. […]"}, "whole blood": {"system": "whole blood", "test": "Spontaneous clotting time of whole blood collected without calcium chelator", "set-up": "species or system human", "settings": "MutB 10 μM, CTI 5 μM; 22° C., no calcium chelator; 3 healthy donors", "procedure": "We used concentrations of contact activation inhibitors leading to 2.5-fold increase of APTT in normal plasma. Untreated whole blood was collected from 3 healthy donors without adding any anticoagulant, for example, citrate, except for the said contact activation inhibitors. The blood was mixed with the said inhibitors at 22° C. using a rotator, after which the time of clot formation in the blood was measured.\nBlood was collected from the median cubital vein of the left hand into a sterile syringe Master UN PE, volume 10 ml, needle 21 G×1½″; 0.8×40 mm (FarmLine, USA). Calcium chelator or other anticoagulants, except contact activation inhibitors MutB or CTI, were not added into plasma. […] The collected blood was poured into a 15 ml tube, mixed by inverting it twice, after which 0.7 ml portions of blood were poured into 1.5 ml polypropylene microcentrifuge tubes MaxyClear Snaplock (Axygen, USA); immediately after, time record using a stopwatch started. Preliminarily, 78 microliters of MutB solution at 100 μM concentration, CTI solution at 50 μM concentration, or buffer solution of 30 mM Hepes pH 7.4 were added into the said tubes. The tubes containing the mixture of whole blood with the said solutions were fixed in the rotator and mixed by inverting them at the rotation speed of 10 rpm. The time of appearance of clots or fibrin filaments in the whole blood during mixing was fixed."}, "fXa": {"molecular_target": "fXa (Homo sapiens, UniProt P00742)", "sequence (P00742 235-488 limits assumed)": "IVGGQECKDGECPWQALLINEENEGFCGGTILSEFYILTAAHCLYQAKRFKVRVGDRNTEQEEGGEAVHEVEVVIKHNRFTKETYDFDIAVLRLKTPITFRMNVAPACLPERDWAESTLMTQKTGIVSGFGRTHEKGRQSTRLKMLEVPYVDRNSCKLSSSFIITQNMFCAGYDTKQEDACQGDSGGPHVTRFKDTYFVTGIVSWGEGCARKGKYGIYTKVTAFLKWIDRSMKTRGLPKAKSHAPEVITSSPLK", "sequence (P00742 41-179 partner limits assumed)": "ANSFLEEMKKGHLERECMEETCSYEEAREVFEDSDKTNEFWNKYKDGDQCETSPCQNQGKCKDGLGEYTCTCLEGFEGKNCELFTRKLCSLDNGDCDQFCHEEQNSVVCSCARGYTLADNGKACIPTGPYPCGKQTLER", "test": "Chromogenic test of protease inhibition in buffer, fXa (substrate S-2765)", "format": "biochemical", "settings": "buffer solution, summary of Table 2", "procedure": "as §1, §2, §3"}, "aPC": {"molecular_target": "aPC (Homo sapiens, UniProt P04070)", "sequence (P04070 212-450 limits assumed)": "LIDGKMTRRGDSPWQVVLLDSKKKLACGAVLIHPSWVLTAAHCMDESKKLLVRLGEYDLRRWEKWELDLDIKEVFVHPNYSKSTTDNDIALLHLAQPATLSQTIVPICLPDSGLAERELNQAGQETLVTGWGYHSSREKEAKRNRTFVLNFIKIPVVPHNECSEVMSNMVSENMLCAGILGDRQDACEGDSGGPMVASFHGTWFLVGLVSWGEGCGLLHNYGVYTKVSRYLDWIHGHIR", "sequence (P04070 43-197 partner limits assumed)": "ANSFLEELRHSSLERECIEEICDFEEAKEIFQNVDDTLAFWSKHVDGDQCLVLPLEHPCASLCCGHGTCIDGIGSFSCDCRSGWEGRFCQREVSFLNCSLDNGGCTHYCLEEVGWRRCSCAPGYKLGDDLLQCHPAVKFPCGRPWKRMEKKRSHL", "test": "Chromogenic test of protease inhibition in buffer, aPC (substrate Spectrozyme pCa)", "format": "biochemical", "settings": "buffer solution, summary of Table 2", "procedure": "as §1, §2, §3"}, "activated protein C": {"molecular_target": "T3, activated protein C (UniProt P04070 43-197; P04070 212-461)", "T3 construct": "also called aPC", "T3 sequence (P04070 43-197, form in doubt, chain 1 of 2)": "as the sequence (P04070 43-197 partner limits assumed) above", "T3 sequence (P04070 212-461, form in doubt, chain 2 of 2)": "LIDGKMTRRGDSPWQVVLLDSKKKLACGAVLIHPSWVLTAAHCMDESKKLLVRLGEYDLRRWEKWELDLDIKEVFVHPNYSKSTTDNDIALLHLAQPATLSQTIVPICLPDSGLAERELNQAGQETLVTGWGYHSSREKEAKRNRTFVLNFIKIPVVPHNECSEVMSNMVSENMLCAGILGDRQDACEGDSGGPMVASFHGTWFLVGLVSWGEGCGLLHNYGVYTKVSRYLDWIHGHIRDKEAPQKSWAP", "test": "chromogenic test (Spectrozyme pCa), IC50 converted by Cheng-Prusoff", "procedure": "as §2, §4"}, "fibrinolysis": {"system": "fibrinolysis", "settings": "supposedly by inhibiting the tissue activator of plasminogen; cited from earlier work"}, "factor XIa": {"molecular_target": "T4, factor XIa (UniProt P03951 19-625)", "T4 construct": "also called fXIa", "test": "chromogenic test (S-2366), IC50 converted by Cheng-Prusoff", "procedure": "as §2, §4"}, "factor XIIa": {"molecular_target": "T5, factor XIIa (UniProt P00748 20-615, limits assumed)", "T5 construct": "also called fXIIa", "T5 sequence (looked up)": "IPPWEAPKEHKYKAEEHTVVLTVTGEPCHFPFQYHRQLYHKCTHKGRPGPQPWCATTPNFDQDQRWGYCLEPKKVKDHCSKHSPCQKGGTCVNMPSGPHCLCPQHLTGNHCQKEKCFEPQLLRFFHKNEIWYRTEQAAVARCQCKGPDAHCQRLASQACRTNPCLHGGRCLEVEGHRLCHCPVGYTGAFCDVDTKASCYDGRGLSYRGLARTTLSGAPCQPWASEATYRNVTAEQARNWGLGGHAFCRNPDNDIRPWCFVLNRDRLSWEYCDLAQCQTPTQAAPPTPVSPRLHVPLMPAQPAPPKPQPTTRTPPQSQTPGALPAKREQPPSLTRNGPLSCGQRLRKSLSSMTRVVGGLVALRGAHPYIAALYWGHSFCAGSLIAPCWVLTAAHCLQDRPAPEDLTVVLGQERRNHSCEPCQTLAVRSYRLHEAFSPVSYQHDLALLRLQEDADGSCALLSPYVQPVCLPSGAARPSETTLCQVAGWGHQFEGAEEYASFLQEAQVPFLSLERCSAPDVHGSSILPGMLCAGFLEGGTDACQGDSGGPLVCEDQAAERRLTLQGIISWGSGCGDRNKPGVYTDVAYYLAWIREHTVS", "test": "chromogenic test (S-2302), IC50 converted by Cheng-Prusoff", "procedure": "as §2, §4"}},
  "data": [
    {"molecule": "MutB: polypeptide comprising the sequence of infestin-4 mutant MutB (SEQ ID NO: 1), inhibition loop TRNFVA; high-selectivity fXIIa inhibitor (EVRNPCACTRNFVAVCGSDGKTYGNPCMLNCAAQTKVPGLKLVHEGRCQRSNVEQF; Infestin-4 mutant MutB)", "values": [
      {"measurement": "fXIIa inhibition selectivity among the said fXIIa inhibitors", "setting": "fXIIa", "result": "highest"},
      {"measurement": "inhibition of fXIa (in words)", "setting": "fXIa", "result": "do not inhibit"},
      {"measurement": "increase of the whole blood storage time in the tube (clotting time)", "setting": "whole blood", "result": "two to three-fold"},
      {"measurement": "inhibition of fXa (in words)", "setting": "fXa", "result": "do not inhibit"}
    ]},
    {"molecule": "corn trypsin inhibitor (other, UniProt P01088 29-138, looked up, Isolated from corn; also called CTI) SAGTSCVPGWAIPHNPLPSCRWYVTSRTCGIGPRLPWPELKRRCCRELADIPAYCRCTALSILMDGAIPPGPDAQLEGRLEDLPGCPREVQRGFAATLVTEAECNLATIS", "values": [
      {"measurement": "inhibition of aPC (in words)", "setting": "aPC", "result": "inhibits"},
      {"measurement": "Ki", "setting": "activated protein C", "result": 20, "unit": "µM"},
      {"measurement": "effect on fibrinolysis", "setting": "fibrinolysis", "result": "can delay fibrinolysis"},
      {"measurement": "Ki", "setting": "factor XIa", "result": 15, "unit": "µM"},
      {"measurement": "inhibition of fXIa (in words)", "setting": "fXIa", "result": "inhibits"},
      {"measurement": "increase of the whole blood storage time in the tube (clotting time)", "setting": "whole blood", "result": "two to three-fold"},
      {"measurement": "Ki", "setting": "factor XIIa", "result": 0.001, "unit": "µM"}
    ]}
  ]
}
